Biological target: T1, wild type ACVR1 (Homo sapiens, UniProt Q04771)
T1 construct: an iPS cell line with the ACVR1 gene mutation repaired to the normal type (wild type) by gene repair by a BAC knockin vector; endogenous in cells; host or cells: mesenchymal stem cell-like cells differentiated from the gene-corrected iPS cell clone
T1 sequence (Q04771 21-509): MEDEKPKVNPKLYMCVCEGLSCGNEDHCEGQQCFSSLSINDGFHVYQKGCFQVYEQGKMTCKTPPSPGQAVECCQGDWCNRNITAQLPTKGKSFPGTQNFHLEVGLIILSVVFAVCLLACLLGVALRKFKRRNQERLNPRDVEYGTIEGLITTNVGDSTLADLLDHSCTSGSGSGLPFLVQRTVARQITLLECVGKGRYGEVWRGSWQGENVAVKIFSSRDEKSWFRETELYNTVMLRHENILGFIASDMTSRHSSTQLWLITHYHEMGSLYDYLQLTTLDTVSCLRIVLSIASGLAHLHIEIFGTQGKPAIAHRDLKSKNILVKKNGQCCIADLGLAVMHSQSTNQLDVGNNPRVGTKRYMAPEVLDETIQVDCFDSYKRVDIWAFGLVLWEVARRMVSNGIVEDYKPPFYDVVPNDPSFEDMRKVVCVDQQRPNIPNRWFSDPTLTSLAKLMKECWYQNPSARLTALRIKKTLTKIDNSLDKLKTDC
Assay: ID1 gene promoter luciferase reporter in U2OS cells with transfer of wild type ACVR1
Format: cell-based
Conditions: 10 ng/mL, 20 hours

- transcription activity via ACVR1 (ID1 gene promoter luciferase): not observed
Substance: human activin A: Recombinant Human/Mouse/Rat Activin A (R&D Systems); homodimer of inhibin βA chains
